Test: label from the status in PepcDB records

Row | Sequence | protein production
1 | MHSEMTVPGFETRLAKVQDVWRDNRCLKSSSIGQYLYWIHRFHHYCIAEALDADEQLTQAGVSLFAQWYARQRRVDAECACQGAQSALRAWALGLSTLGVEIPPWQCDTDRTSESEPRLQDFAEHLRQHRGNPEATIKKKLAHIRCFLAFIAARHRPLRHLKLTDIDAFLVDCSQRYARTTTADIGSSLRGYVRFLLVTGQVTADLAPSIVTPIVRHYEQPLRALPWDDVRHILAAIDRSSPIGLRDYALLLLMSTYGLGAGEVIRLTLDDIDWQAATLRVVRPKTGVAFVLPLLPALAQALADYLKHGRPRRAPSRHVFQSMRAPHYPLSESSAIRHILVGHARKAGVTAAYLGSHVLRHTHACRQVEQEISPKVLSDILGHRSPESLSAYVRIATERLRQLPLPVPE | failed
2 | MHSGLDNSAELRVSDFDPITLAGGTRTEVLPGAIQPHAALLALAPADLTIVHAAGATASLLGAAAELLPGTAASTAFSSDQIARLQALATAERWIERPQHAFTLNAPDATPIDVIVHHASGLLVVELDPRREPAPENSLALVQSMIRRARPAPNLQGFCDAMAAELRSVTGFDRVMVYRFARDGSADVIAEARGPETSPFLGLRDPQPDISNQPGSISRIRVQPDVHAPAAPLWPAHSPRNGLALDLSFSATRSASPEHRLYLAQLGVAASLSLSLVVEGELWGLIVCHHATPRFLPYRMREACALFAEMASLQLETRLAADQLAARLRSTRIHEELVTRMSQESDLAEGLIRFYPNLLDFIPAAGVGLWIDGQFTGIGATPGPAQVAAMMGWLHGVPHDGVYHTDCLALAYPPAKAFAGCASGLLALSLSNTPHNYVLWFRPEVVRVVTWAGMPNKPVGVDAGAPRTPKGCASSWQESVRLHGEPWLDTDVDAAHRLRESLLDVVLRRIDGIARERRSAQLLQEQLMRQVELGLSRSKDVAKTLQEEKRRRVLVEADLSKVLRRTVEDQEAERLRIARELHDTLGQSLTLLQLGFDKLGQAAGDNPELQQRIAEMKSLTADVGRQANRLAWEIRPTALDDLGIQTAIQNLLDSWSEKSSIEFDLHMTLGSRRLPSPVETTLYRVLQEALTNVVRHASARHVSVILQLGDDQVTMIVEDDGCGFVTAGRKPPSGRLGLLGIRERLSLVGGSLEIESAPGKGTALYARIPL | failed
3 | MHSQASNPSATPEPETPNAAGGKRSVFAVILGNAVEFFDFGVYATFAVMIGHTFFPSDSAFVSLMLSVTAFGVGFIVRPLGAVLIGAYADRVGRKPAMLLTLVMMAVGTGSIAILPSYESIGIAAPILLVLTRLIQGLAWGGEAGPATTYILEAAPAHKRGTYACWQVVAQGVAAMAAGTVGYTLTQVLSPEDLNSWGWRVPFVFGLLVLPIGIYIRRNLAETFHGQGETASTGSLVRQVFGEHRRALVLGLLILSGSTITQYFINYMTTFALTELKLPTSISMLSTLVAGAAMAVCAIAGGMLCDRFGRRTILMAPRVVLLLVLFPALQLMTEHPSPTTFLLTLAVLSGLHGMSGAALIVLLVESFPKAVRSTGFSIVYAFGVAAFGGTAQIIITWLIGTTGNPMSPVGYLLVANLVCLTAAWFAKETRPQAPGRSNPGQRLAEARAR | failed
4 | MHSSSRASFTTRGDIRRQVEGFSASGERNKDTVVDLSTFFAERGYSNNQAPTKYWEEKLVTIGNVVVPKWVPVKERNSSNKQKEGEDEVFIGFEAIYYPEQPPERQPITLYQEENKVEEEEQSRE | not failed
5 | MHSVPSTGFPQSEFSGPFWTGRGVACARPNRYVWTARPSDQSSRRMSTSFSRRLRRLQSQKETALCVGLDPVPARFPPSLQDGRLRTDAVRAFCTTIVEATAPYACAFKPNFAFFEALGPAGLTVLDQVVTTIPDDCLVLGDAKRGDIGHSARHYAASIYEELGLDACTVSPYLGRDSVMPFLEHEGTCTFVLARTSNDGAADLQEACTCDGTPLYRHVARRVQAWNADAPGGAGLVVGATAPAALQDLRSLCPSLPFLVPGVGAQGGDAAAVMDAAATDEGPVLVNSSRSILYASEGPNYANAAADAARALRDALNGGASSSRGAPSPPALEHHHHHH | failed
6 | MHTFKIDCQLHYRVIQMTEFVFQFEVAEHPWQTLIHESFQFKPDLAFEQYERDAGLNRLIRVNAPEGDLSVSYTAKVQTHIPERNTSLKECEIKDLPSDTLFYLAPSRFCESDLIDTMVTNTFAELPKGYSRVQAICDWIHDNIIYQSGSSDSTTTARDILVNRAGVCRDFAHLGIAICRALNIPARFVFGYMPFYQAQPDFHAIFEVYLENQWMLFDATRMGPIDQFVRVGTGLDAKDVPFATVYGEIELISMSPVIELV | failed
7 | MHTNWQVCSLVVQAKSERISDISTQLNAFPGCEVAVSDAPSGQLIVVVEAEDSETLIQTIESVRNVEGVLAVSLVYHQQEEQGEETP | not failed
8 | MHTQEALFVRLALDAWNTQSSRTDKLIQSLSNEALAVETAPGRNSGTYLLGHLTAVHDAMLPLLELGDTLYPQLAPVFIQNPDKSGLEKPEINDLRLYWSLVQERLANQFNQLQPADWFNKHAAISREDFLKEPHRNKLSVLINRTNHMAYHLGQLAYLKK | not failed
9 | MHVFYSEERRGNLLILREGEVKHFRVRRIEKDEEFGVIHEGKIYVCKVRREDKREISCEIVEELETKLPPKDITLYQSVTVDLKTMDTIVRQATELGVLTFVPIISERSFQKEEAILKKTEKWKRIVIEAMKQSRRPIPMEIKKPVRLSDLIPESEENIILDNFYEGVKPKDVNLEAKTYSVVVGPEGGFSKRESQILREKGFKSVLLEPYTLRTETAVVSIVSILMNF | not failed
10 | MHVSKVFPSLRDTLPRDLMASVVVFLVALPLCMGIAIASGMPPAKGLLTGIVGGLVVGFLAGSPLQVSGPAAGLAVLVFELVRTYGVAMLGPILLLAGAIQLLAGRLRLGCWFRVTSPAVVYGMLAGIGILIVLSQLHVMLDLAPKASGLDNLLAFPQAAFAALGSLGMDSGLDAALLGLGTIAVMWGWDKLRPQRLRFLPGALLGVSLATLASLWLALDVRRVEVPANLGEAIVWLRPADLLALADPSLLLAAVVVAFIASAETLLSAAAVDRLHDGPRSDMDRELSAQGVGNMLCGLLGALPMTGVIVRSSANVNAGARTRASAIFHGLWLLAFVLLLGSLLRQIPVASLAGVLVYTGVKLVDFKALGNLSRYGRMPMLVYAATALAIVFTDLLTGVLVGFALTLLKLVLKAARLKIALRYTGEHEAELRLSGAATFLKVPALSRVLDEVKPGTTLHVPMDNLSYVDHACMELLEDWGRMAPVQGSRLVIEPRALKRRLEGRLRGSVGLGGARNGGAVSPG | failed
11 | MIAAAWIAVTAALYAAARALHRRFPRPWLTPLLVVPGALAAVLLAARVPYPGYMRGGRLLVDLLGPATVAFALPLHRHAGLLRRHAAELCAGILAGCAVAVGSSFLLARALGLGRPLALSLAPRSITTPFAMQVAGDLGGVPALAAVFVILTAVVGLVVGQLLLRWLPLRSAVARGALFGMGAHAAGTAQAMELGRVEGAVAGVVMIVAGLGVLVATPLLRLAL | failed
12 | MIAFQALQAISPIDGRYRNKVEVLSRYFSEGSLIRYRVKVEVEYFIALCNELPSLKDVCPPSLEEELRRIYQDFSEKDAVRVKEIEAVTNHDVKAVEYFLKERFEAMGIRDAKEFIHFGLTSQDVNNTAFPMMIREAMTEVYLPALQELVEQLHAYALQWKDVPMLAKTHGQPASPTRLGKEIEVFVYRLRKQIDLLLEVPHSAKFGGATGNFNAHHVAYPDHDWSDFGRRFVTSLGLEREELTTQISNYDNMAALFDACCRINVILIDLCRDFWQYISMEYFKQKIKAGEVGSSAMPHKVNPIDYENAEGNLGIANAIFEHLSRKLPISRLQRDLTDSTVLRNVGTPLAHSLIAVTSIAKGLGKLLLNEAALDRDLQNNYAVVAEAIQTILRREGYPNPYETLKALTRTNETVTAESIASFIEALDIDETVKEEMRRISPSNYVGI | failed
13 | MIAISSLLGLVVRSFYFLLPDYRAADTWFHASKVKMIISTGTVYFSHVPGYFSAQIIKYPPGYHALIALLSGFKGENIIYGMNSLRIFEILYLPALAYLVGREIRREIGIFAALLTNFSALYYYFVQYALLPAFTNYMIFLLSVYFLEVAMRDRGIKISIMLGITSGIMAVVHPYQYILFQATAFFTTILSKNRKVFLTQLILSASVFLVFTPFSTEYAVKGILMNPRFSNKDNPNFLISILRYSFVDNGQILFGLSLILALILSLMRGGSIEKGLSLSFLLIIFMMLDKTYLNIRIPYLSAVWNSERAFMLTTPLIPILEGIGLNYIFKVKKELAAIFLVVGMMISYPYLRIEHLASESSYLLDPEVVDFIKEVSRIAGNETVMTACEFDSGRWIPILTETPIVCYSKNISEARYLYVDTRGAGEIEVYPINIVNFLDRRVVLFRDGLWLLDLNKHGKPTGDVLSYYHTNGTISYIKDTKWFVYGWVNKNYATMKLRLKGFPYAIMIVNTSSILFSTSESFDRIEIRISGKKGRALEIYLDGEFIKRYEFKTEYGDERIVLKVRVDPGMHYLILYSPNTTYKIPIGVKEIMLKREGP | failed
14 | MIAMILVHPHIFWLSLGGLLLAAEMLGGNGYLLWSGVAAVITGLTVWLLPLGWEWQGVLFAALTLLAAWLWWRWLARRVREQKPTDSRLNQRGQQLVGRRFMLDAALVNGRGHMRVGDSSWPVCADEDLRAGTHVEVIAVEGITLRIRAV | failed
15 | MIATLRSYLSADKRGLVGPAFLFLSLLASISDPFGGYGMTFLRRFLFWVLVLGVAGGIAFLSHRMVERHLSGAPLLGKDLLIVLLVTLSFTPSLWVLIFLFAAPSTGTAPDMWSMARYGTIFASGLIVLRRGVFGQSVPEEESLQPRIYKRLPEGFSEQILRLTVRDHSVDVVTDKGVHTIRSRFGDAIDEMVPISGHCTHRSHWVTDTAIESVERSGGKIHLRLSNGDLIPVSRKYRPALEEAGIV | failed
16 | MICTPKVGLNNQLTKVQFFMTKYNFLFKQQVIEFYLQNDKNSSLTRRHFQLAETTLERWINQFNHSGINGLALLGKKRNYSPEFKLNVIQAVKNGKFSAEAACLHFGIANSGVVSQWLQAFEKQGINGLIPKPKGRPTMKLQYPKMPPKPKTREEELELENLRLRAENAILKKLQELNQQKMQKKPLSLEHHHHHH | failed
17 | MIDFLDVQKETPRIRIAIDRVGVKNIKFPLKIHDDFAFLTLNLFVDVPADRKGADMSRAVESIQKVINAGSYGERIGDIGIAICDEALSRFNYSEKAQCEVNIQYYRRSGERYLEYRMYVETAKDRKQIMKNEIGISYVTMTACPCAMETTRALISMDNPDISDAISAIPTITHNQRNVTKLTVDNRSKMITVWDLADVMERVQGKPLDSLLKRVEEGRLVYSAHRNPKFVEDVVREIAYEAARVLGVPDEATIKVSSESDESIHPHNAYAEIDTTAGELRKLHLH | not failed
18 | MIDFNDIPQPEAQDRQARREEIRAALLARLESVLFALLPAGKKRGGKFLIGDVLGSPGDSLEVVLDGEKAGLWTDRATGDGGDIFGLIAAHLGADVHADFPRVLDVAADLVGRAHPAPPRKARSAPPVDGLGPATAKWDYFDPAGKLIAVVYRYDPPGRKKEFRPWDARRRKMAPPEPRPLYNQPGLVAADTVVLVEGEKCAQALIDIGVAATTAMHGANAPVDKTDWSPLAGKAVLIWPDRDKPGWEYAMAAAQAALAVGAMSCDVLLPPDDRSEGWDAADAVAEGFDVAGFLAFGPRMSIKPASVTPTQEPSVWATDDALALAFTSRYAEDWRYCAAWGKWLVWDGRRWQADETLLVHHLIRAICREAALKADSHRLAAKLAASSTVGGVERLARTDRRHASTSEEWDADLFALNTPSGIVDLKTGRIKPHDRRERMTKLATATPHGDCARWRAFLEDITGGDTALQAYLQRMVGYCLTGATSAHALFFLYGTGANGKSVFVNTLATILGDYATSAPMDTFMEARGDRHPTDLAGLRGARFVSSIETEQGRRWNESKVKAITGGDKVSARFMRQDFFEYLPQFKLVIAGNHKPAIRNVDEAMKRRLHLIPFTVTIPPEKRDGQLTEKLLAERDGILAWAVEGCLAWQRDGLNPPASVVSATEEYFDEEDAIGDFLDEEAQRFEQARVAVADVFQRWQEWATRRGEYVGTSRWLAQQLANRGFGRARLHGGVKGLAGLSLKPRDYGTRLPYRDD | failed

Source: a protein production outcome set (Wang et al. 2014)
